Experimental data published in PMC7024214.

Target: elastase (UniProt P00772)

Substance | inhibition of the activity of elastase (IC50) [nM]
tutuilamide A (peptide) | 4
tutuilamide B (peptide) | 3.6
